Measurements from patent US20240400652A1 (VIR BIOTECHNOLOGY, published 2024).

B1: SARS-CoV-2 S304 (antibody, V domains shown)
VH: EVQLVESGGGLVQPGGSLRLSCAASGFTFSSYDMHWVRQTTGKGLEWVSTIGTAGDTYYPDSVKGRFTISREDAKNSLYLQMNSLRAGDTAVYYCARGDSSGYYYYFDYWGQGTLLTVSS
VL: DIQMTQSPSSLSAAVGDRVTITCRASQSIGSYLNWYQQKPGKAPKLLIYAASSLQSGVPSRFSGSGSGTDFTLTISSLQPEDFAIYYCQQSYVSPTYTFGPGTKVDIK
B2: SARS-CoV-2 S315 (antibody, V domains shown)
VH: EVQLVESGGGLVQPGGSLRLSCAASGFTFSNYWMTWVRQAPGKGLEWVANIKQDGSEKYYVDSVKGRFTISRDNAKNSLYLQMNSLRAEDTAVYYCARDLWWNDQAHYYGMDVWGQGTTVTVSS
VL: SYELTQPPSVSVSPGQTARITCSGDAFPNQYAYWYQQKPGQAPVMLIYKDSERPSGIPERFFGSSSGTTVTLTIRGVQAEDEADYYCQSADSSGTVFGGGTKLTVL

Biological target: SARS-CoV-2 Spike protein on pseudotyped virus (SARS-CoV-2, UniProt P0DTC2 14-1273)
Assay: cell-based or functional assay

Binder	IC50, neutralization of SARS-CoV-2pp, DBT-ACE2 cells [µg/mL]	IC50, neutralization of SARS-CoV-2pp, DBT-ACE2 cells (further assays) [µg/mL]
B1	~17	–
B2	–	25.1
